# Source: article doi:10.1101/2022.01.21.477263
# Key:
# Experiment in all cases: crystal structure
# [1] = molecular target: HIV-1 (M) CA R120 (arginine restored at CA position 120) (HIV-1 group M)
# [2] = molecular target: HIV-1 (M-group) CA Q50Y, disulfide-stabilised hexamer construct (A14C, E45C, Q50Y, W184A, M185A) (HIV-1 group M)
# [3] = molecular target: HIV-1 (O-group) CA, disulfide-stabilised hexamer construct (A14C, E45C, W185A, M186A) (HIV-1 group O)
# [4] = molecular target: SIVcpz CA, disulfide-stabilised hexamer construct (P14C, E45C, W184A, M185A) (SIVcpz (SIVcpzPtt))
# [5] = molecular target: SIVmac CA, disulfide-stabilised hexamer construct (P13C, E44C, W182A, M183A) (SIVmac)
substance,measurement,setting,value
HIV-1 (M) CA R120 (arginine restored at CA position 120) (natural protein),stoichiometry N,[1],6
"HIV-1 (M-group) CA Q50Y, disulfide-stabilised hexamer construct (A14C, E45C, Q50Y, W184A, M185A) (natural protein)",stoichiometry N,[2],6
"HIV-1 (O-group) CA, disulfide-stabilised hexamer construct (A14C, E45C, W185A, M186A) (natural protein)",stoichiometry N,[3],6
"SIVcpz CA, disulfide-stabilised hexamer construct (P14C, E45C, W184A, M185A) (natural protein)",stoichiometry N,[4],6
"SIVmac CA, disulfide-stabilised hexamer construct (P13C, E44C, W182A, M183A) (natural protein)",stoichiometry N,[5],6
